Experimental data reported in paper PMC5245964 (eLife, 2017).

Target: T1, Mis18α:Mis18β complex (insect-cell-expressed) (human, UniProt Q9NYP9 1-233; O43482 1-229)
T1 construct: Mis18α, human, the CDS of Mis18α; codon-optimized cDNA (GeneArt); Mis18β, human, the CDS of Mis18β; pre-formed complex used as one partner in pull-downs and reconstitution; also called Mis18α:Mis18β hexamer; source: Tnao38 insect cells, baculovirus co-expression, purified (Ni resin, His-TEVp cleavage, SEC); not shown: His6, N-terminal, cleaved; copies: 4 + 2
T1 sequence (Q9NYP9 whole entry, chain 1 of 2): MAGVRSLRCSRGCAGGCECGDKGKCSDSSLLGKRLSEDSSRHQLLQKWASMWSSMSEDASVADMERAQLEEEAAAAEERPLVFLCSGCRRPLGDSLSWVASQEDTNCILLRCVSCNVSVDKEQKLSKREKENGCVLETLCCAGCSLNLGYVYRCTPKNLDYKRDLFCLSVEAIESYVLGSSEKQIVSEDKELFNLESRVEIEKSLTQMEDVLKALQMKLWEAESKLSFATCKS
T1 sequence (O43482 whole entry, chain 2 of 2): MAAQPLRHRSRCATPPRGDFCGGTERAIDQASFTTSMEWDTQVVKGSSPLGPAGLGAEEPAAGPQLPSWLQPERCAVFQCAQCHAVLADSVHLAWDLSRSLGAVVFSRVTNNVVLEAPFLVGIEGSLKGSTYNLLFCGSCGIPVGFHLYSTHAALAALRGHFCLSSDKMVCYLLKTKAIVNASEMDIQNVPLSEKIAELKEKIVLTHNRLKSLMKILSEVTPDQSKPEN
Assay: pull-down; MBP-tagged M18BP1 variant held on amylose resin, Mis18α:Mis18β in solution; proteins 3 μM, buffer HST300 (30 mM HEPES pH 7.5, 300 mM NaCl, 1 mM TCEP), 4°C, 30 min; CBB-stained Tricine–SDS-PAGE
Conditions: both partners purified

binding result: binds
B1: MBP-M18BP1^61–140/S110A-8His (domain or fragment, human, UniProt Q6P0N0 61-140, looked up)
chain: NQFLKMTTFNNKNIFQSTMLTEATTSNSSLDISAIKPNKDGLKNKANYEAPGKIFLRMKEKVLRDKQEQPSRNSSLLEPQ
notes: M18BP1 (KNL2), human, residues 61-140; also tested after CDK1:Cyclin B1 treatment; Ser110 is the only major site of 61-140, so no separate molecule was made; source: E. coli BL21-CodonPlus(DE3)-RIL, purified (Ni resin); not shown: MBP, N-terminal, kept; His8, C-terminal, kept
